Reference: PMC9712121 (Nature, 2022)

Biological target: the molecule itself
Assay: negative-stain EM; TNKS2 SAM at 104 μM on carbon, 2% uranyl acetate; 3D refinement with D1 symmetry, projections compared with the SAM–PARP model and PDB 5JRT

B1: TNKS2 SAM (867–940), wild type (domain or fragment, human, UniProt Q9H2K2 867-940, looked up)
chain: EKKEVPGVDFSITQFVRNLGLEHLMDIFEREQITLDVLVEMGHKELKEIGINAYGHRHKLIKGVERLISGQQGL
notes: Tankyrase 2 (TNKS2), human, SAM domain, residues 867-940; also called SAM domain
binding result: binds
